Measured values published in the supplement of paper PMC10126150.
± gives the standard deviation of the averaged measurements.

Tested on: ATP
Experiment: switch fluorescence ratio, 500 uM ATP over buffer (Cy3 cluster intensity, sum of 5 cycles each) (fold (ratio)); higher = stronger signal-on switching upon ATP binding; sequences stand for … in TCGTCGGCAGCGTCAGATGTGTATAAGAGACAGTTTTTTTTTTTTTTTTTTTTTTTTT…TC
Conditions: aptamer strand: ATP DNA aptamer (quencher-CACCTGGGGGAGTATTGCGGAGGAAGG + anchor), 100 nM annealed; ATP concentration: 500 uM
Summary of the method: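 Clusters carrying Cy3-labelled switching strands on a modified Illumina MiSeq flow-cell were annealed to 100 nM quencher-labelled ATP aptamer and imaged in selection buffer. They were imaged again after 15 min with 500 uM ATP at 22 °C, over five buffer/ATP cycles with NaOH stripping and re-annealing in between. For each cluster, the fluorescence ratio is the summed Cy3 intensity of the target cycles divided by that of the buffer cycles, averaged per switch-domain sequence. Clusters outside 100-1000 RFU were left out.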
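Also: ATP exposure 15 min at 22 °C before imaging.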

Sequence	switch fluorescence ratio
GGGGGGGAGG	0.993 ± 0.029
TGTTGTTACA	0.99 ± 0.029
TTAGGGAATT	0.989 ± 0.046
TATCGTTTTT	0.987 ± 0.046
CGGGCCTCCG	1.152 ± 0.0046
TAACAGGTGG	1.02 ± 0.036
ACTGGCGTGC	1.04 ± 0.07
ATGATCAAAT	1 ± 0.054
GCGGGTCTGG	1.03 ± 0.022
CGGTGTAGCC	1.02 ± 0.014
CAGGGGCGGG	0.966 ± 0.11
CGAAGAGGTT	0.98936 ± 0.00044
TGGACCGGTC	0.996 ± 0.01
TATGTTATAT	0.991 ± 0.029
TCAAGGAGGT	1.01 ± 0.13
TTTTACCACT	1.0422 ± 0.00058
GAGGGGGGGC	1.01 ± 0.07
CGCTTTGGTT	1.04 ± 0.012
TTTTTGTGAC	0.999 ± 0.027
TTCTTTATAT	0.9721 ± 0.005
ACTCTAGGTG	3.47 ± 0.091
TAGTTGGTAC	0.9925 ± 0.0083
TTATGCATCG	0.9768 ± 0.0047

Sequence	switch fluorescence ratio
AAGTTTACAT	1.01 ± 0.026
GCAGTAGTTG	1.01 ± 0.026
AGGTGACAGT	0.982 ± 0.021
CCTAGGGAAG	0.9972 ± 0.0046
TTGGAAGTC	1.04 ± 0.026
GTTTGCCAGG	1.01 ± 0.013
CGGTATTCTG	1.01 ± 0.052
CCTTGTATTT	1.01 ± 0.018
ACCAAGGGGT	1.02 ± 0.054
TTAAAGTCGG	1 ± 0.024
CAAGAGGGGC	1 ± 0.026
CATTCGTCGG	1.044 ± 0.0031
ACTTTGTATG	1 ± 0.017
AGGGGTTAAA	1.01 ± 0.022
TGGGTTGACG	0.998 ± 0.037
GTGGGTGGGT	1 ± 0.025
TTTGTTATTT	1.01 ± 0.023
TAGTGAGGGA	0.992 ± 0.013
GACAGAGGGC	0.96 ± 0.062
TATTTACGGG	0.9931 ± 0.0065
CTAGGTTCTG	1.015 ± 0.0043
AGAGACCCCG	0.971 ± 0.039
GAAGGGATGT	1.01 ± 0.042

Sequence	switch fluorescence ratio
TTCATTCCGA	1.29 ± 0.095
ATTTTGGCGT	0.982 ± 0.037
CCTCATTGGT	1.026 ± 0.0093
CGGCGGGCAA	1.81 ± 0.69
TTTAAACCTT	1.89 ± 1.2
CGTTTCTAAG	0.967 ± 0.03
TTTATAGAGT	1.03 ± 0.029
AAGGGAAGGC	1 ± 0.018
TGAGTATAGG	1.009 ± 0.003
AATAGAATAC	1.163 ± 0.0021
CGGTTTTTTG	0.964 ± 0.014
GAGGCCCATT	1 ± 0.043
TTAGAGGGTC	0.9952 ± 0.0013
CGGGTATTGC	1.03 ± 0.011
GAGATTGAGG	1.02 ± 0.038
AGATCGGGTG	1 ± 0.021
ACTCTGGGTC	1.07 ± 0.016
CCGTTGACCT	1.073 ± 0.01
CGCCAGCATA	2.82 ± 0.31
GGGGACTGTA	1.04 ± 0.061
CCGGAATCAT	1.127 ± 0.00097
TGGTCTTAGA	1.01 ± 0.012
TTTGTCAGGT	0.9692 ± 0.0021

Sequence	switch fluorescence ratio
CGCATTAAAA	0.969 ± 0.024
GGGGTAGGGA	1 ± 0.019
TCGTACGCTA	3.38 ± 0.084
GGGTAGGCTT	0.965 ± 0.023
TATGAGAAGC	1 ± 0.017
ACTCGTTGTC	1.02 ± 0.035
AATGGTTCTC	0.985 ± 0.022
TAATATGGTG	0.998 ± 0.014
ACTCGGTTTG	0.949 ± 0.067
GTCAATGGTG	0.9901 ± 0.0074
AATACTGTGC	0.947 ± 0.064
TTTAACCGTA	1.02 ± 0.023
GGGCATGCGT	0.973 ± 0.042
TTCTGTTATT	1.11 ± 0.21
TTTTCTCCGT	1.3 ± 0.43
AGCGGAGTGA	1.007 ± 0.0093
TGTACTATGG	1.01 ± 0.04
TTTTTGGCCC	0.9649 ± 0.0018
TAAGGGGAGC	1.01 ± 0.03
TTTTTGTACG	0.998 ± 0.025
ACCGGCGTTT	1.05 ± 0.051
TCGTCCGGCG	0.96503 ± 0.00055
TTTTAAAGGG	0.993 ± 0.045

Sequence	switch fluorescence ratio
CGTTGTTCGT	1 ± 0.0015
ATTTTTACAG	1.03 ± 0.032
GGGACTTAAC	1.03 ± 0.014
TTACTATGTA	1.02 ± 0.019
GCTATAAGTG	0.969 ± 0.027
GGATTTTTTT	1 ± 0.032
GAACGAAGTT	1 ± 0.018
CCATAAATAG	1.169 ± 0.0077
TTTTGTTCCT	1.02 ± 0.026
TAAGGTAAGG	1.01 ± 0.031
TAAGAGGAGT	0.985 ± 0.013
ACGAAAGTCA	1.052 ± 0.01
TGATTATGGA	0.995 ± 0.045
TTTTCGAGGG	1.01 ± 0.023
AGTGATTCGT	1.01 ± 0.038
TGGTTGTTTA	0.993 ± 0.0045
AGAAGGTATG	1.0001 ± 0.0006
TATAGTTGTG	0.965 ± 0.025
CGTGCGGCGT	0.9829 ± 0.0026
TATGTCTCTC	0.97458 ± 0.00069
ATATTGGTAC	1.034 ± 0.0013
ATGTGGGGGG	0.992 ± 0.039
ATCTATCTGT	1 ± 0.027

Sequence	switch fluorescence ratio
GAGGGGAGCG	0.969 ± 0.043
GATTGGTCTT	0.976 ± 0.03
AGATCAAGGT	1.02 ± 0.013
GTTGCTTGCG	1 ± 0.02
GGAAAGTTGG	0.996 ± 0.012
GAATAGGTAT	0.99505 ± 0.00011
TCAGGTTTTG	0.98 ± 0.013
GACAGTCAAA	1.01 ± 0.04
CGTGTAGTCC	1.1 ± 0.086
CATTGATATG	0.9912 ± 0.0091
GATGGTTAGA	0.998 ± 0.036
TGAGACTGGG	0.993 ± 0.02
TCCAACTCCA	1.11 ± 0.0039
TTTTGCGCTC	1 ± 0.027
TCCATAGGGC	1.002 ± 0.0048
AAGTGATTGG	0.973 ± 0.011
GAGTGTGTGT	1.006 ± 0.0053
TTTAGGGGCC	0.987 ± 0.021
TGTGATTTTG	0.998 ± 0.028
CCCATTTTGC	1.032 ± 0.0067
CATTTCGAAC	1.02 ± 0.027
GGGGCACATT	0.9885 ± 0.0046
CCCGAAGGGC	1.01 ± 0.081

Sequence	switch fluorescence ratio
ACTAATTGA	0.996 ± 0.027
TTGGACAGGG	1 ± 0.02
TAGGGAAATT	1.04 ± 0.021
AGGTTGGGTG	1.05 ± 0.013
ACCCTGTGTA	1 ± 0.021
GGCGTAAGGG	1.01 ± 0.019
CCATTAGTTT	0.987 ± 0.018
ATCTATCCTT	1.01 ± 0.036
GAGCTGGAGG	1 ± 0.017
ATTTCAGGGT	1 ± 0.015
ACGCCATTCT	1.151 ± 0.0096
AGTTTTGTTT	1.01 ± 0.02
GGGGTCGATG	0.9847 ± 0.0042
CGCGGGGATA	1.18 ± 0.23
GGTGGCTGAA	0.99 ± 0.022
GAGTGGGTGG	0.99 ± 0.037
CGGGGCGCGA	1.1 ± 0.049
AGATTTTTCG	1.04 ± 0.024
TTGGCTAATT	1 ± 0.034
